Test results reported in IntAct's records for PubMed 19114660.

B1: Occludin (Homo sapiens), Q16625-1 (parent)
chain: MSSRPLESPPPYRPDEFKPNHYAPSNDIYGGEMHVRPMLSQPAYSFYPEDEILHFYKWTSPPGVIRILSMLIIVMCIAIFACVASTLAWDRGYGTSLLGGSVGYPYGGSGFGSYGSGYGYGYGYGYGYGGYTDPRAAKGFMLAMAAFCFIAALVIFVTSVIRSEMSRTRRYYLSVIIVSAILGIMVFIATIVYIMGVNPTAQSSGSLYGSQIYALCNQFYTPAATGLYVDQYLYHYCVVDPQEAIAIVLGFMIIVAFALIIFFAVKTRRKMDRYDKSNILWDKEHIYDEQPPNVEEWVKNVSAGTQDVPSPPSDYVERVDSPMAYSSNGKVNDKRFYPESSYKSTPVPEVVQELPLTSPVDDFRQPRYSSGGNFETPSKRAPAKGRAGRSKRTEQDHYETDYTTGGESCDELEEDWIREYPPITSDQQRQLYKRNFDTGLQEYKSLQSELDEINKELSRLDKELDDYREESEEYMAAADEYNRLKQVKGSADYKSKKNHCKQLKSKLSHIKKMVGDYDRQKT

Variants of: B1
Conditions: with kpcl_human kpcl_human

Effect of a mutation on the interaction, decreasing interaction:
MSSRPLESPPPYRPDEFKPNHYAPSNDIYGGEMHVRPMLSQPAYSFYPEDEILHFYKWTSPPGVIRILSMLIIVMCIAIFACVASTLAWDRGYGTSLLGGSVGYPYGGSGFGSYGSGYGYGYGYGYGYGGYTDPRAAKGFMLAMAAFCFIAALVIFVTSVIRSEMSRTRRYYLSVIIVSAILGIMVFIATIVYIMGVNPTAQSSGSLYGSQIYALCNQFYTPAATGLYVDQYLYHYCVVDPQEAIAIVLGFMIIVAFALIIFFAVKTRRKMDRYDKSNILWDKEHIYDEQPPNVEEWVKNVSAGTQDVPSPPSDYVERVDSPMAYSSNGKVNDKRFYPESSYKSTPVPEVVQELPLTSPVDDFRQPRYSSGGNFETPSKRAPAKGRAGRSKRTEQDHYETDYTAGGESCDELEEDWIREYPPITSDQQRQLYKRNFDTGLQEYKSLQSELDEINKELSRLDKELDDYREESEEYMAAADEYNRLKQVKGSADYKSKKNHCKQLKSKLSHIKKMVGDYDRQKT [T404A]
MSSRPLESPPPYRPDEFKPNHYAPSNDIYGGEMHVRPMLSQPAYSFYPEDEILHFYKWTSPPGVIRILSMLIIVMCIAIFACVASTLAWDRGYGTSLLGGSVGYPYGGSGFGSYGSGYGYGYGYGYGYGGYTDPRAAKGFMLAMAAFCFIAALVIFVTSVIRSEMSRTRRYYLSVIIVSAILGIMVFIATIVYIMGVNPTAQSSGSLYGSQIYALCNQFYTPAATGLYVDQYLYHYCVVDPQEAIAIVLGFMIIVAFALIIFFAVKTRRKMDRYDKSNILWDKEHIYDEQPPNVEEWVKNVSAGTQDVPSPPSDYVERVDSPMAYSSNGKVNDKRFYPESSYKSTPVPEVVQELPLTSPVDDFRQPRYSSGGNFETPSKRAPAKGRAGRSKRTEQDHYETDYATGGESCDELEEDWIREYPPITSDQQRQLYKRNFDTGLQEYKSLQSELDEINKELSRLDKELDDYREESEEYMAAADEYNRLKQVKGSADYKSKKNHCKQLKSKLSHIKKMVGDYDRQKT [T403A]
MSSRPLESPPPYRPDEFKPNHYAPSNDIYGGEMHVRPMLSQPAYSFYPEDEILHFYKWTSPPGVIRILSMLIIVMCIAIFACVASTLAWDRGYGTSLLGGSVGYPYGGSGFGSYGSGYGYGYGYGYGYGGYTDPRAAKGFMLAMAAFCFIAALVIFVTSVIRSEMSRTRRYYLSVIIVSAILGIMVFIATIVYIMGVNPTAQSSGSLYGSQIYALCNQFYTPAATGLYVDQYLYHYCVVDPQEAIAIVLGFMIIVAFALIIFFAVKTRRKMDRYDKSNILWDKEHIYDEQPPNVEEWVKNVSAGTQDVPSPPSDYVERVDSPMAYSSNGKVNDKRFYPESSYKSTPVPEVVQELPLTSPVDDFRQPRYSSGGNFETPSKRAPAKGRAGRSKRTEQDHYETDYTTGGESCDELEEDWIREYPPITSDQQRQLYKRNFDAGLQEYKSLQSELDEINKELSRLDKELDDYREESEEYMAAADEYNRLKQVKGSADYKSKKNHCKQLKSKLSHIKKMVGDYDRQKT [T438A]
